The star is where a group is joined. Biotin = O=C1N[C@H]2[C@H](CS[C@H]2CCCCC(=O)*)N1; Ttds = NCCCOCCOCCOCCCNC(=O)CCC(=O)*

GC enzyme activity and half-life of GC activity data for two molecules are collected here from patent US20170258870A1.

For this assay, the target named is recombinant GC (Cerezyme, Genzyme Therapeutics) (UniProt P04062). Kind of assay: cell-based or functional assay.

B1: Helix 5 peptide (LIMP-2-derived, L152-E175) (peptide)
peptide: {Biotin-Ttds}-LREIIEAMLKAYQQKLFVTHTVDE-OH
As for B1, the GC enzyme activity came out at 5 times and the half-life of GC activity at 37° C. (stabilization assay) amounted to 48 h.

B2: 3xD Helix 5 peptide (peptide)
peptide: {Biotin-Ttds}-LREDDEAMDKAYQQKLFVTHTVDE-OH
Take B2: the half-life of GC activity at 37° C. (stabilization assay) came to 24 h.
